According to publication PMC10276851, “Tozorakimab (MEDI3506): an anti-IL-33 antibody that inhibits IL-33 signalling via ST2 and RAGE/EGFR to reduce inflammation and epithelial dysfunction” (Scientific Reports, 2023):
Blank lines part the entries; values can stand above or below the binder they belong to.

B3: reduced interleukin-33 (IL-33^red), recombinant human, residues 112–270 (ligand, UniProt O95760 112-270, looked up)
chain: SITGISPITEYLASLSTYNDQSITFALEDESYEIYVEDLKKDEKKDKVLLSYYESQHPSNESGDGVDGKMLMVTLSPTKDFWLHANNKEHSVELHKCEKPLPDQAFFVLHNMHSNCVSFECKTDPGVFIGVKDNHLALIKVDSSENLCTENILFKLSET
notes: interleukin-33, human, residues 112–270, reduced form (free cysteines); Other assays used a biotinylated Avi-tag histidine-tag form or an N-terminally tagged form; also called wild-type IL-33; source: recombinant
B4: soluble serum stimulated 2 (sST2), the truncated, soluble form of ST2 (receptor, UniProt Q01638-2 19-328, looked up)
chain: KFSKQSWGLENEALIVRCPRQGKPSYTVDWYYSQTNKSIPTQERNRVFASGQLLKFLPAAVADSGIYTCIVRSPTFNRTGYANVTIYKKQSDCNVPDYLMYSTVSGSEKNSKIYCPTIDLYNWTAPLEWFKNCQALQGSRYRAHKSFLVIDNVMTEDAGDYTCKFIHNENGANYSVTATRSFTVKDEQGFSLFPVIGAPAQNEIKEVEIGKNANLTCSACFGKGTQFLAAVLWQLNGTKITDFGEPRIQQEEGQNQSFSNGLACLDMVLRIADVKEEDLLLQYDCLALNLHGLRRHTVRLSRKNPSKECF

How the values were obtained:
IL-33ox = target: T1, IL-33ox (Homo sapiens, UniProt O95760); assay: SPR
T1 chain: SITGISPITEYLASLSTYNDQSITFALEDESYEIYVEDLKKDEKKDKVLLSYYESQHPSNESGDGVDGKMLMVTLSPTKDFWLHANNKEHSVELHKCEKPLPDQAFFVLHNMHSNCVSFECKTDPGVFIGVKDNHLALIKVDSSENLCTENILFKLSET

IL-33red = target: T2, IL-33red (Homo sapiens, UniProt O95760); assay: KinExA
T2 chain: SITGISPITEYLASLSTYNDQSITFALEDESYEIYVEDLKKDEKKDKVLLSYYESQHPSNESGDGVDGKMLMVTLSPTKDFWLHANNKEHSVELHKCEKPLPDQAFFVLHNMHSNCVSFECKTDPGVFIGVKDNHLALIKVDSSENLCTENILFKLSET

[1] = target: B4; assay: KinExA (kinetic exclusion assay); measurement of the association rate constant (ka) of IL-33 interacting with sST2 in free solution; conditions: both partners purified
[2] = target: B4; assay: KinExA (kinetic exclusion assay); equilibrium in free solution; IL-33^red against fixed sST2 (30 pM and 2.0 pM datasets), 1:1 binding model fitted to both datasets simultaneously; conditions: both partners purified
[3] = target: B3; assay: cell-based or functional assay
[4] = target: T3, endogenous IL-33^red derived from human lung tissue (mixture of full-length and N-terminally truncated forms) (human (endogenous in lung tissue), UniProt O95760 1-270); assay: cell-based or functional assay
T3 sequence (looked up): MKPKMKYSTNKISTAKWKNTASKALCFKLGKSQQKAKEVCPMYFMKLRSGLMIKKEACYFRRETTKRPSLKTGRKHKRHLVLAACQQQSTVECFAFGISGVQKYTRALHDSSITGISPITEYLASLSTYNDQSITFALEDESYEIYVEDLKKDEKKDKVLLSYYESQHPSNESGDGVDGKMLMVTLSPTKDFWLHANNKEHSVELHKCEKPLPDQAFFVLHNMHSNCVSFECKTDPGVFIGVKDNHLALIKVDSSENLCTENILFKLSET

Binder: B3
kon [1]: 1.5e+08 M⁻¹ s⁻¹
Kd [2]: 0.09 pM

Binder: B4
IC50 of inhibition of IL-8 release from HUVECs driven by recombinant human IL-33^red (residues 112–270) [3]: 424 pM
IC50 of inhibition of IL-8 release from HUVECs treated with human lung lysate (endogenous IL-33^red) [4]: 32 pM

Second part, the binder after the results:

Kd (IL-33ox): 41000 pM
B1: tozorakimab Fab (antibody, V domains shown)
VH: EVQLLESGGGLVQPGGSLRLSCAASGFTFSSYAMSWVRQAPGKGLEWVSGISAIDQSTYYADSVKGRFTISRDNSKNTLYLQMNSLRAEDTAVYYCARQKFMQLWGGGLRYPFGYWGQGTMVTVSS
VL: SYVLTQPPSVSVSPGQTASITCSGEGMGDKYAAWYQQKPGQSPVLVIYRDTKRPSGIPERFSGSNSGNTATLTISGTQAMDEADYYCGVIQDNTGVFGGGTKLTVLG
modifications: oxidized IL-33

Kd (IL-33red): 0.03 pM
B2: tozorakimab (antibody, V domains shown)
VH: EVQLLESGGGLVQPGGSLRLSCAASGFTFSSYAMSWVRQAPGKGLEWVSGISAIDQSTYYADSVKGRFTISRDNSKNTLYLQMNSLRAEDTAVYYCARQKFMQLWGGGLRYPFGYWGQGTMVTVSS
VL: SYVLTQPPSVSVSPGQTASITCSGEGMGDKYAAWYQQKPGQSPVLVIYRDTKRPSGIPERFSGSNSGNTATLTISGTQAMDEADYYCGVIQDNTGVFGGGTKLTVLG
